From publication PMC3960220, “1,2-β-Oligoglucan Phosphorylase from Listeria innocua” (PLoS ONE, 2014)

Tested on: O=P(O)(O)O[C@H]1O[C@H](CO)[C@@H](O)[C@H](O)[C@H]1O
Assay: phosphate release, Lowry and Lopez molybdate method, A700
Type: biochemical, Listeria innocua
Conditions: synthetic reaction (donor, up to 10 mM), co-substrate 10 mM Sop2, 100 mM MOPS-NaOH pH 7.5, 30°C
Excerpt: phosphate release, Lowry and Lopez molybdate method, A700 on Lin1839r (recombinant Lin1839 protein; 1,2-β-oligoglucan phosphorylase)

## Lin1839r (recombinant Lin1839 protein; 1,2-β-oligoglucan phosphorylase) (Listeria innocua Clip11262; T2A)
  Km: 1200 ± 200 µM
  kcat: 43 ± 2 s⁻¹
  kcat/Km: 34000 ± 4000 M⁻¹ s⁻¹
